We go through 13 molecules from patent US20230357429A1 (JANUX THERAPEUTICS, published 2023).

In test [1] the target is T1, Human TROP2 ECD (31-274 AA), biotinylated (human, UniProt P09758 31-274, biotinylated (site not stated)).
T1 construct: also called tumor-associated calcium signal transducer 2; Human TROP2-biotin
T1 sequence: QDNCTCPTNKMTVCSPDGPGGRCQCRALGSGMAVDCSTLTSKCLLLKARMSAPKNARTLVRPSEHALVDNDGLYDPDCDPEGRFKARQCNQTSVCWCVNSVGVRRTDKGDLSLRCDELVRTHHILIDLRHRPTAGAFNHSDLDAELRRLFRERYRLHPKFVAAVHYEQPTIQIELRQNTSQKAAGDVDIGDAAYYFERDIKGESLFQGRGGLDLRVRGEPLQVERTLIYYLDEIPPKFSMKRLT
The experiment in a line: BLI (Octet), biotinylated human TROP2 ECD on SAX sensor, Fab 6.25-50 nM.

In test [2] the target is T1, Human TROP2 ECD (31-274 AA), …. Kind of test: BLI (Octet), dissociation half-life from biotinylated human TROP2 ECD.
Test [3] shares this target. The experiment in a line: ELISA, biotinylated TROP2 ECD on neutravidin plate, Fab titrated.
For test [4] the target is unchanged. The experiment in a line: ELISA, ratio of EC50 to that of TBD-1 wt.
Test [5] shares this target. The experiment in a line: ELISA: biotinylated TROP2 captured on neutravidin plate, Fab titrated, HRP secondary antibody.
Test [6] has the same target. Described as above. The source holds these as a separate data set.
Test [7] shares this target. The experiment in a line: ELISA, biotinylated TROP2 ECD on neutravidin plate, Fab titrated. This is another data set of the same source.
Test [8] has the same target. The experiment in a line: BLI (Octet), dissociation half-life from biotinylated human TROP2 ECD. The source holds these as a separate data set.
For test [9] the target is unchanged. The experiment in a line: BLI (Octet), biotinylated human TROP2 ECD on SAX sensor, Fab 6.25-50 nM. The source holds these as a separate data set.
Test [10] shares this target. The experiment in a line: ELISA, ratio of EC50 to that of TBD-1 wt. The source holds these as a separate data set.
Another test concerns the target T2, Cyno TROP2 Full length (cynomolgus monkey, UniProt P09758 31-323 (human entry)).
T2 chain: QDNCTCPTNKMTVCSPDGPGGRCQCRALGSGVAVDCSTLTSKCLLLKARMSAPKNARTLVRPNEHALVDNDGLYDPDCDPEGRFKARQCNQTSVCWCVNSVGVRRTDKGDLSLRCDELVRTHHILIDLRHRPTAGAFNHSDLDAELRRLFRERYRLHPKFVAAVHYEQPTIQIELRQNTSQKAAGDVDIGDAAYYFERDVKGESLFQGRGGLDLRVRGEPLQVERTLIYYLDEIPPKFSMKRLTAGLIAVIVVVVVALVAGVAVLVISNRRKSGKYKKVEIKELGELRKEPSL
Kind of test: cell-based or functional assay.

The next test concerns the target T3, Human TROP2 Full length (human, UniProt P09758 31-323).
T3 sequence: T2 chain with V32M, N63S, V200I, V262M, S268T
The experiment in a line: cell-based or functional assay.

Test [11] addresses T1, Human TROP2 ECD (31-274 AA), …. Kind of test: ELISA on immobilized TROP2.
The target is the same in test [12]. The experiment in a line: ELISA on immobilized TROP2. The source holds these as a separate data set.

Numbering of substitutions follows the chain as printed. Names may count otherwise. Read-outs that look alike come from different tables or passages of the source.

B1: TBD-12 (anti-TROP2 Fab, HC G99A) (Fab, V domains shown)
VH: QVQLQQSGSELKKPGASVKVSCKASGYTFTNYGMNWVKQAPGQGLKWMGWINTYTGEPTYTDDFKGRFAFSLDTSVSTAYLQISSLKADDTAVYFCARAGFGSSYWYFDVWGQGSLVTVSS
VL: DIQLTQSPSSLSASVGDRVSITCKASQDVSIAVAWYQQKPGKAPKLLIYSASYRYTGVPDRFSGSGSGTDFTLTISSLQPEDFAVYYCQQHYITPLTFGAGTKVEIKR
Consider B1, for which the Kd in test [1] is 0.492 nM. Also, in test [2], the “t1/2” value is 39 min. Further, the EC50 in [3] and in [5] was 0.2 nM throughout. Moreover, the “Fold shift in EC50 relative to wt” value in test [4] was found to be 1 fold.

B2: TBD-21 (anti-TROP2 Fab, HC F108A) (Fab, V domains shown)
VH: B1 VH with A99G, F108A
VL: B1 VL
notes: also called TBD-21 (HC F108A mutant)
Turning to B2, the results for the EC50 in [6] and in test [7] were 4.11 nM and 4.1 nM, respectively. Also, the “t1/2” value in test [8] amounted to 8 min. Moreover, in test [9], the Kd worked out at 4.76 nM. In addition, in [10], the “Fold shift in EC50 relative to wt” value came out at 20.5 fold.

B3: TBD-23 (anti-TROP2 Fab, HC V110A) (Fab, V domains shown)
VH: B1 VH with A99G, V110A
VL: B1 VL
For the molecule B3, the EC50 in test [6] amounted to 0.236 nM; in test [7] it was 0.2 nM. The “t1/2” value in test [8] was found to be 34 min. The molecule further gave a Kd in [9] of 0.401 nM. The “Fold shift in EC50 relative to wt” value in [10] came to 1 fold.

B4: TBD-17 (anti-TROP2 Fab, HC S104A) (Fab, V domains shown)
VH: B1 VH with A99G, S104A
VL: B1 VL
notes: also called TBD-17 (HC S104A mutant)
B4: the EC50 in [6] was determined as 0.432 nM; in test [7] it was 0.4 nM. The “t1/2” value in test [8] was 24 min. Further, binding in test [9] was put at a Kd of 0.9 nM. Besides, in test [10], the “Fold shift in EC50 relative to wt” value turned out to be 2 fold.

B5: TBD-22 (anti-TROP2 Fab, HC D109A) (Fab, V domains shown)
VH: B1 VH with A99G, D109A
VL: B1 VL
notes: also called TBD-22 (HC D109A mutant)
As to B5, the EC50 in test [6] and in [7] was 1.1 nM in each case. The “t1/2” value in test [8] was determined as 33 min. In test [9], this molecule returned a Kd of 2.35 nM. The “Fold shift in EC50 relative to wt” value in test [10] was 5.5 fold.

B6: TBD-20 (anti-TROP2 Fab, HC Y107A) (Fab, V domains shown)
VH: B1 VH with A99G, Y107A
VL: B1 VL
On to B6, for which the EC50 in test [6] turned out to be 52.2 nM; in test [7], 52.3 nM. The “t1/2” value in [8] was 10 min. The same molecule came in with a Kd in [9] of 6.34 nM. In test [10], the “Fold shift in EC50 relative to wt” value was determined as 262 fold.

B7: PC-47 (bispecific antibody)
light: GGVDFCGLYHWPICYQGGGGSGGGGGSGGGGSGGASSGAGGSDIQLTQSPSSLSASVGDRVSITCKASQDVSIAVAWYQQKPGKAPKLLIYSASYRYTGVPDRFSGSGSGTDFTLTISSLQPEDFAVYYCQQHYITPLTFGAGTKVEIKRTVAAPSVFIFPPSDEQLKSGTASVVCLLNNFYPREAKVQWKVDNALQSGNSQESVTEQDSKDSTYSLSSTLTLSKADYEKHKVYACEVTHQGLSSPVTKSFNRGEC
heavy: not shown
On to B7, for which the “CyTROP2 HEK293 EC50 (pM)” value with Cyno TROP2 Full length was 17300 pM. In addition, the “H292 Cytotoxicity EC50 (pM)” value in the test with Human TROP2 Full length was > 100000 pM.

B8: PC-31 (bispecific antibody)
light: GGVDFCGLYHWPICYQGGGGSGGLSGRSDAGSPLGLAGSGGSDIQLTQSPSSLSASVGDRVSITCKASQDVSIAVAWYQQKPGKAPKLLIYSASYRYTGVPDRFSGSGSGTDFTLTISSLQPEDFAVYYCQQHYITPLTFGAGTKVEIKRTVAAPSVFIFPPSDEQLKSGTASVVCLLNNFYPREAKVQWKVDNALQSGNSQESVTEQDSKDSTYSLSSTLTLSKADYEKHKVYACEVTHQGLSSPVTKSFNRGEC
heavy: not shown
As to B8, the “CyTROP2 HEK293 EC50 (pM)” value with Cyno TROP2 Full length is > 100000 pM. The “H292 Cytotoxicity EC50 (pM)” value with Human TROP2 Full length is > 100000 pM.

B9: PC-32 (bispecific antibody)
light: B8 light
heavy: not shown
On to B9, for which the “CyTROP2 HEK293 EC50 (pM)” value with Cyno TROP2 Full length came out at 35900 pM. Further, the “H292 Cytotoxicity EC50 (pM)” value with Human TROP2 Full length came out at 28100 pM.

B10: TCE-4 (bispecific antibody)
light: not shown
heavy: QVQLQQSGSELKKPGASVKVSCKASGYTFTNYGMNWVKQAPGQGLKWMGWINTYTGEPTYTDDFKGRFAFSLDTSVSTAYLQISSLKADDTAVYFCARGGFGSSYWYADVWGQGSLVTVSSASTKGPSVFPLAPSSKSTSGGTAALGCLVKDYFPEPVTVSWNSGALTSGVHTFPAVLQSSGLYSLSSVVTVPSSSLGTQTYICNVNHKPSNTKVDKKVEPKSC
B10: the EC50 in test [11] was 2.5 nM; in [12], 7.29 nM.

B11: PC-13 (bispecific antibody)
light: not shown
heavy: GGVDFCGLYHWPICYQGGGGSGGLSGRSDAGSPLGLAGSGGSQVQLQQSGSELKKPGASVKVSCKASGYTFTNYGMNWVKQAPGQGLKWMGWINTYTGEPTYTDDFKGRFAFSLDTSVSTAYLQISSLKADDTAVYFCAAGGFGSSYWYFDVWGQGSLVTVSSASTKGPSVFPLAPSSKSTSGGTAALGCLVKDYFPEPVTVSWNSGALTSGVHTFPAVLQSSGLYSLSSVVTVPSSSLGTQTYICNVNHKPSNTKVDKKVEPKSC
notes: anti-TROP2 R98A
Consider B11, for which the EC50 in test [11] is > 1000 nM; in test [12], 419 nM.

B12: PC-23 (bispecific antibody)
light: not shown
heavy: B11 heavy with G17V
notes: anti-TROP2 R98A
Consider B12, for which the EC50 in [11] was > 1000 nM.

B13: PC-19 (bispecific antibody)
light: not shown
heavy: B11 heavy with G7A, A140R, F150A
notes: anti-TROP2 F108A
As to B13, the EC50 in test [11] was > 1000 nM.
